Data taken from patent US11351270B2, “Junctophilin-2 fragments and uses therefor” (University of Iowa Research Foundation, priority 2016, dated 2022).

What was measured:
[1] = tested on: RNA polymerase II (RPB1) and TATA-box binding protein (TBP); experiment: Crosslinking-reversal co-IP in 293T cells; settings: JP2NT-transfected 293T cells
Protocol: Cells were first crosslinked by 1% formaldehyde for 10 minutes at RT before quenching by 0.75 M Tris. After washing with PBS, cells were lysized using RIPA buffer and sonication was applied to breakdown chromatin and shear DNA. Anti-HA resin (sigma) was used to pull down HA tagged protein complexes. The pulled-down protein complexes were boiled at 95° C. for 10 minutes to reverse the formaldehyde induced crosslinking between proteins. Western blot was used to assay the presence of bait and prey proteins.
(§1) TBP specifically binds to TATA boxes, eukaryotic core cis-regulatory elements localized at transcription start site. […] This interaction was abrogated by mutation of the TATA box elements (FIGS. 11E&G and 17B). It was concluded that JP2NT is a DNA binding protein, binding to consensus TATA box represented as TATAA(A/T) or TATATA (FIG. 11F).

[2] = tested on: MEF2C Response Element (MRE) from the desmin enhancer; experiment: Gel shift assay with MEF2 response element; type: binding; settings: purified protein
Text: FIGS. 12A-E. JP2NT represses MEF2-mediated transcription by competing for the MEF2 Response Element (MRE). A) Enrichment of MEF2 binding motifs in ChIP-seq dataset. B) Gel shift assay of JP2NT binding to a desmin promoter-derived DNA sequence containing a WT or mutated MRE in vitro. C) Co-immunoprecipitation of HA-tagged JP2NT binding to MEF2C or Histone H3. D) & E) MEF2 activity assays in 293T cells co-transfected with luciferase under the control of an MRE, MEF2C and WT JP2NT (D) or a mutant lacking the ARR (E, JP2NT^ΔARR). n≥3 independent batches of cells; in each batch of experiments, 3 replicates were performed for each transfection; **p<0.01 vs. Ad-Empty.
The MEF2 family, master regulators of hypertrophic genes in cardiomyocytes, binds to the A/T enriched consensus sequence (C/TTA(A/T)4TA G/A), which shares the same core sequence with TATA box. Thus, it was hypothesized that JP2NT directly interacts with MEF2 binding sites.

[3] = tested on: promoters of Myc, KLF6, TGFβR1 and NFKBIA; experiment: Promoter luciferase reporter assay; type: cell-based; settings: co-expression; vs empty vector control
Protocol: Firefly and Renilla reporter plasmids and JP2NT variants were co-transfected into HEK293 cells. The protein of the cells was harvested 48 hours after transfection. Promega dual luciferase system was used to evaluate the luciferase activity.
To further test whether JP2NT regulates transcription of these genes, luciferase reporters controlled by promoters of Myc, KLF6, TGFβR1 and NFKBIA were constructed.

[4] = tested on: TATA box DNA sequences; experiment: Gel shift assay with TATA box sequences; type: binding; settings: GST-purified protein; cMyc or CMV promoter sequences
Text: FIGS. 11A-H. JP2NT is a TATA-box binding protein enriched at transcription start site (TSS) and interacts with basic transcription machinery. […] C) 293T cells were transfected with HA-tagged JP2NT, followed by crosslinking-reversal immunoprecipitation with anti-HA and immunoblotting with anti-polymerase II (Rpb1) or anti-TATA box binding protein (TBP). D-H) JP2NT binds to TATA box DNA sequences in vitro. D-E) Gel shift assays of GST-purified JP2NT binding to WT (D). or mutated TATA box-containing sequences (E) derived from the cMyc promoter. F) Summary of the results of gel shift assays with various of TATA box variants or mutants. Mutation of the core TATA sequences abolished the interaction with GST-JP2NT. G) Deletion of the ARR, but not the N-terminal MORN domains, eliminated JP2NT binding to the TATA box sequence. H) The peptide JP2^331-405 containing the ARR specifically binds to WT TATA box sequence.
as §1

[5] = tested on: genomic DNA; experiment: ChIP-seq of JP2NT-OE hearts; type: binding, mouse; settings: anti-HA ChIP-seq
Protocol: ChIP-seq from transgenic myocardium was performed using the antibody against HA-tag, which pulls down the HA-tagged JP2NT. Sequencing libraries were prepared for the pulled-down DNA and input DNA (randomly fragmented genomic DNA), and then were subjected to Illumina sequencing (NextSeq 500 platform, 75 bp single end reads). The quality of sequencing reads was evaluated by FastQC (version 0.11.3) software (http://www.bioinformatics.babraham.ac.uk/projects/fastqc/) and the sequencing adaptor was trimmed by Cutadapt (version 1.8.1) software (Martin, 2011). Processed sequencing reads were aligned to mouse genome (mm10) by Bowtie 2 (version 2.2.5) software (Langmead et al., 2012) with the “-end-to-end” mode. MACS (version 1.4.2) software […] was used to call enriched peaks (the cutoff of significance was p value<1e-10). Homer (version 4.8.3) software (Heinz et al., 2010) was used to analyze the enriched genomic features of peaks, identify the target genes, and search the binding motifs.

[6] = tested on: cultured adult murine cardiomyocytes; experiment: Affymetrix Genechip analysis of cultured cardiomyocytes; type: cell-based, mouse
Protocol: Genecarrior-1 (Epoch Lab) was used to transfect plasmids into HEK293T cells. Isolation and culture of cardiomyocytes were performed as described previously (Guo et al., 2015). Adenoviruses were applied at a multiplicity of infection (MOI) of about 100, which results in transfection of almost all cells as confirmed by immunostaining of eptiope tags.
Microarray assay was performed by Affymetrix GeneChip® Mouse Genome 430 2.0 according to the standard procedure of cRNA preparation and Genechip hybridization. The R package limma (version 3.22.7) (Ritchie et al., 2015) was used for processing microarray data and identifying differentially expressed genes (the cutoff of significance was p value<0.01). David (Huang et al., 2009) was used for gene enrichment (GO) analysis. Ingenuity pathway analysis (IPA, Qiagen) was used for pathway analysis.

B1: JP2NT: shorter form of Junctophilin-2 including the first 565 amino acids of N-terminus of JP2 (protein, UniProt Q9BR39 1-565, looked up, fragment)
chain: MSGGRFDFDDGGAYCGGWEGGKAHGHGLCTGPKGQGEYSGSWNFGFEVAGVYTWPSGNTFEGYWSQGKRHGLGIETKGRWLYKGEWTHGFKGRYGIRQSSSSGAKYEGTWNNGLQDGYGTETYADGGTYQGQFTNGMRHGYGVRQSVPYGMAVVVRSPLRTSLSSLRSEHSNGTVAPDSPASPASDGPALPSPAIPRGGFALSLLANAEAAARAPKGGGLFQRGALLGKLRRAESRTSVGSQRSRVSFLKSDLSSGASDAASTASLGEAAEGADEAAPFEADIDATTTETYMGEWKNDKRSGFGVSERSSGLRYEGEWLDNLRHGYGCTTLPDGHREEGKYRHNVLVKDTKRRMLQLKSNKVRQKVEHSVEGAQRAAAIARQKAEIAASRTSHAKAKAEAAEQAALAANQESNIARTLARELAPDFYQPGPEYQKRRLLQEILENSESLLEPPDRGAGAAGLPQPPRESPQLHERETPRPEGGSPSPAGTPPQPKRPRPGVSKDGLLSPGAWNGEPSGEGSRSVTPSEGAGRRSPARPATERMAIEALQAPPAPSREPEVALYQG
modifications: GST or adenoviral forms
notes: shorter form of Junctophilin-2 including the first 565 amino acids of N-terminus of JP2
- association with RNA polymerase II (RPB1) and TBP [1]: associates
- interaction with MEF2C Response Element (MRE) [2]: interacts
- promoter activity (firefly luciferase) [3]: significantly attenuated
- binding to TATA box [4]: directly binds
- JP2NT-binding genomic DNA regions (p<10^−10) [5]: 18,242
- genes encompassed by JP2NT-binding regions [5]: 10,587 genes
- differentially expressed genes mapped to genomic loci bound in ChIP-seq [6]: about 74%
- ERK/MAPK, NF-κB, TGF-β and integrin signaling pathways (Ingenuity Pathway Analysis) ([6]; IPA of differentially expressed genes): predicted to be inhibited
- significantly induced known genes (p<0.01) ([6]; vs Ad-Empty control): 574 genes
- significantly repressed known genes (p<0.01) ([6]; vs Ad-Empty control): 1996 genes
